Results reported in publication PMC3754857.

Target: OX40-R65C (human OX40 with p.Arg65Cys), expressed ectopically on cells (human) (UniProt P43489)
Assay: flow cytometry on cells

Sequence of UniProt P43489 (P43489 29-277 R65C): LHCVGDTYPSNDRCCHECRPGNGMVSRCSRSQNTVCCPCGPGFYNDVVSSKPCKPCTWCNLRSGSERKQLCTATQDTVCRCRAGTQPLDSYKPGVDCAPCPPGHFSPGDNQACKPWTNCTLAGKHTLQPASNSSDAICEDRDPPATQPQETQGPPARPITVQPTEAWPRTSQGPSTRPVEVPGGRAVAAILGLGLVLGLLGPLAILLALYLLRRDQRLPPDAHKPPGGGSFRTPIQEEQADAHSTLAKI

Substance: biotinylated recombinant soluble human OX40 ligand (OX40L) (from UniProt P23510 51-183)
- fold decrease of OX40L binding against cells expressing OX40-WT: 16 fold
